According to PMC5599542:

How the values were obtained:
[1] = target: GRB2 (UniProt P62993); test: FLAG affinity purification, Western blot; conditions: reference: wild type
[2] = target: PTPN11/SHP2 (UniProt Q06124); test: FLAG affinity purification, Western blot; conditions: reference: wild type; sites Y241,Y263

Substance: MPZL1 (PZR) (from UniProt O95297) Y241F
- binding against the reference ([1]; sites Y241): weaker

Substance: MPZL1 (PZR) (from UniProt O95297) Y241F/Y263F
- binding against the reference [2]: lost

Substance: MPZL1 (PZR) (from UniProt O95297) Y263F
- binding against the reference ([1]; sites Y263): weaker
